Experiment: yeast display, Sf9 membrane polyspecificity reagent, FACS + sequencing; frameworks hold sequencing errors
Outline: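 Genes from sorted yeast were amplified by colony PCR, read by MiSeq 2 × 250 sequencing and filtered on CDR length. These cells carried a synthetic nanobody library in Saccharomyces cerevisiae BJ5465 and were sorted by FACS into low and high (top ~1%) gates on anti-HA and streptavidin fluorescence. Polyreactivity is labelled according to the gate of origin.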

| Sequence | polyreactivity (PSR sort gate) |
| --- | --- |
| QVQLVESGGGLVQAGGSLRLCCAAYGFTFRINAMGWYRQAHGKERELVAYMSGRGGSTYYADSVQGRFTISRDNAMNTVYLQMNSLKPEDTAVYYCAATGSSSMSSYYLGQGTQVTVSS | high polyreactivity |
| QVQLVESGGGLVQAGGSLRLGCAASGSTLYSYAMGWYRQAPGKERELVASISSGASTYYADSVKGRFTISRDNAKNTVYLQMNSLKPEDTAVYYCNADAGSYHTGWVTPWGSDEYDYWGQGTQVTVSS | low polyreactivity |
| QVQLVESGGGLVQAGGSLRLICAAAGRTFWYNAMGWYRQAPGKERELVAVISSGAITYYADSVKGRFTISRDNAKNTVYLQMNSLKPEDTAVYYCAARSYLSLIDYWGQGTQVTVSS | high polyreactivity |
| QVQLVESGGGLVQAGGSLRLICAACGYTFEHYAMGWYRQAPGKERELVAAITRSGGSTSYADSVKGRFTISRDNAKNTVFLQMNRVKPEDTAVYYCAADSIRYFDYDYWGQGPQVTVSS | low polyreactivity |
| QVQLVESGGGLVQAGGSLRLICAASGFIFITNAMGWSRQAPGKERELVAAITSSDGNTYYADSVKGRFTISRDNAKNTVYLQMNSLKPEDTAVYYCADDARTKSYVRLYDYWGQGTQVTVSS | low polyreactivity |
| QVQLVESGGGLVQAGGSLRLICAASGFIFSFNAMGWYRQAPGKERELVAAIRRSAGSTYYADSVKGRFTISRDNAKNTVYLQMNSLKPEDTAVYYCATVTRLYRHGYWGQGTQVTVSS | high polyreactivity |
| QVQLVESGGGLVQAGGSLRLICAASGFIFSSYAMVWYRQAPGKERDLVAAISQTVGGTYYADSVKGRFTISRDNAKNTVYLQMNSLKPEDTAVYYCAADVYTASDRYWHDYWGQGTQVTVSS | low polyreactivity |
| QVQLVESGGGLVQAGGSLRLICAASGFIFTLYAMGWYRQAPGTERELVAAISKTGGRTYYADSVKGRFTISRDNAKNTVYLQMNSLKPEDTAVYYCAKDVPSTYAAAYDYWGQGTQVTVSS | high polyreactivity |
| QVQLVESGGGLVQAGGSLRLICAASGFIIYIYAMGWYRQAPGKERELVAAISRSGVGTYYADSVKGRFTISRDNAKNTVYLQMNSLKPEDTAVYYCARSRSGYRYDYWGQGTQVTVSS | high polyreactivity |
| QVQLVESGGGLVQAGGSLRLICAASGFISVRNAMGWYRQGPGKERELGAAISSGDTTDYADSVKGSFTISRDNAKNTVYLQMNSLKPEDTAVYYCAAVYYGRYYYWGQGTQVTVSS | low polyreactivity |
| QVQLVESGGGLVQAGGSLRLICAASGFTFASNAMGWYRQATGKERELVAAITTSGGSTYYADSVKGRFTISRDNAKNTVYLQMNSLKPEDTSVYYCADRATSRRPYSYGSWGQGTQVTVSS | high polyreactivity |
| QVQLVESGGGLVQAGGSLRLICAASGFTFGEYAMGWYRQAPGKERDFVASISWDGASTYYADSVKGRFTISRDNAKNTVYLQMKSLKPEDTAVYYCAATRYYSFWGQGTQVTVSS | low polyreactivity |
| QVQLVESGGGLVQAGGSLRLICAASGFTFGYYAMGWYRQAPRKERELVAAISYTGGSTYYADSVKGRFTISRDNAMNTVYLQMNSLKPEDTAVYYCNAYSALYGSYNYWGQGTQVTVSS | high polyreactivity |
| QVQLVESGGGLVQAGGSLRLICAASGFTFSYYAMGWYRQAPGKESELVAGITTGGGTNYADSVKGRFTISRDNAKNTVYLQMNCLKPEDTAVYYCNAVGSHWVSYSSPVRFDFWGQGTQVTVSS | low polyreactivity |
| QVQLVESGGGLVQAGGSLRLICAASGFTFYKNTMGWYRQAPGKERELVAAISSSGSSTYYADSVKGRFTISRDNAKNTVYLQMNSLKPEDTAVYYCAAGRFAYHDDYWGQGTQVTVSS | high polyreactivity |
| QVQLVESGGGLVQAGGSLRLICAASGGIFWYNAMGWYRPAPGKERELVADISSSGITYYADSVKGRFTISRDNAKNTVYLQMNSLKPEDTAVYYCAADSTTRPGLRVYDDYDYWGQGTQLTVSS | low polyreactivity |
| QVQLVESGGGLVQAGGSLRLICAASGGIFYSNARGWYRQAPGKERDFVAAITRSGTSTYYADSVKGRITISRDNAKNTVYLQMNSLKPVDTAVYYCAADYRYRRYRGHVSKLYYWGQGTQVTVSS | low polyreactivity |
| QVQLVESGGGLVQAGGSLRLICAASGIIFGIYDMGWYRQAPGKERELVAAIRRSGGSTYYADSVKGRFTISRDNAKNTVYLQMNSLKPEDTAVYYCATDAWYYSQTNHDYWGQGTQVTVSS | low polyreactivity |
| QVQLVESGGGLVQAGGSLRLICAASGIIFQAYTMGWSRQAPGKERELVAAISYSGGSTYYADSVKGRFTISSDNAKNSVYLEMKSLKPEDTAVYYCARRSRYLWRYDYWGQGTQVTVSA | high polyreactivity |
| QVQLVESGGGLVQAGGSLRLICAASGIIFYYAMGWYRQAPGKEREFVASIRWSGDSTYYADSVKGRFTISRDNAKNTVYLQMNSLKPEDTAVYYCAAEPDSAVSYVSWRDYWGQGTQVTVSS | low polyreactivity |
| QVQLVESGGGLVQAGGSLRLICAASGIILYSYAMGWYRQAPGKERELVAAISRRGTSTFYADSVKGRFTISRDNAKNTVYLQMNSLKPEDTAVYYCAADFYTNHYDYWGQGTQVTVSS | high polyreactivity |
| QVQLVESGGGLVQAGGSLRLICAASGITFEVYAMGRYRLAPGKEMELVAVITSVGSTNYADSVKGRFTISRDNAKNTVYLQMNSLKPEDPAVYYCAALKWTVRRFNPYTYYRYDYWGQGTQVTVSS | low polyreactivity |

| Sequence | polyreactivity (PSR sort gate) |
| --- | --- |
| QVQLVESGGGLVQAGGSLRLICAASGITFPSNTMGWYRQAPGKERELVAAITRGDNTYYADSVKGRFTISRDNAKNTVYLQMNSLKPEYTAVYYCATEGYQIQYEHDYWGQGTIVTVSS | low polyreactivity |
| QVQLVESGGGLVQAGGSLRLICAASGITFSAYAMGWYRQAPGKERELVAAITRSGGITYYADSVKGRFTISRDNAKNSVYLQMNSLKPEDTAVYYCNKPYASPYYDSWGQGTQVTVSS | high polyreactivity |
| QVQLVESGGGLVQAGGSLRLICAASGITFTGYAMGWYTQAPGKERELVAVISETGGSTYADSVKGRFTISRDNAKNTVYLQMNSLKPEDTAVYYCAARLWWPYSTAWAKMDYWGQGTQVTVSS | low polyreactivity |
| QVQLVESGGGLVQAGGSLRLICAASGITFVEYSMGWYRQAPGKERDLVAAISWSGVRTRYADSVKGRFTISRDNAKNTVYLQMNSLKPEDTAVYYCYTVPRGGGGVRILDYWGQGTQVTESS | high polyreactivity |
| QVQLVESGGGLVQAGGSLRLICAASGITFVYYAMGWYRQAPGKERELVAAISTSGDSTYYADSVKGRFTISRDNAKNTVYLPMNSLKPEDTAVYYCAADADYYQYGWRVYYWGQGTQVTVSS | low polyreactivity |
| QVQLVESGGGLVQAGGSLRLICAASGITFYAYPMGWYRQAPGKERELVAAITSSGSSTYYADSVKGRFTISLDNAKNTVYFQMNSLKPEDTAVFYCAATRGTKFYWGQGTQVTVSS | high polyreactivity |
| QVQLVESGGGLVQAGGSLRLICAASGITTRTYAMGWYRQAPGKDRELVAAISDSGDRTYYADSVKGRFTISRDNAKNTVYLQMNRLKPEDTAVYYCAVDAPGPRCEFWGQGTKVTVSS | low polyreactivity |
| QVQLVESGGGLVQAGGSLRLICAASGLIFGRYDMGWYRQAPGKERELVAAISGGTTNYADSVKGRFTISRDNAKNTVYLEMNSLKPEDTAVYYCNAGPSQPGGIFYEYDYWGQGTQVTVSS | low polyreactivity |
| QVQLVESGGGLVQAGGSLRLICAASGLIFKFYAMGWYRQAPGKERELVASIRGSGDNTYYADSVKGRFTISRDNAKNTVYLQMNSLKPEDTAVYYCAADWLYDYGEYYYWGQGTQVTVSS | high polyreactivity |
| QVQLVESGGGLVQAGGSLRLICAASGLIFRGYAKGWYRQAPGKERELVAAISKSGGSTYYADSVKGRFTISRDNAKNTVYLQMNSLKPEDTAVYYCNTDYVWKYFLSSQYDYWGQGTQVTVSS | high polyreactivity |
| QVQLVESGGGLVQAGGSLRLICAASGLTFVYYTKRSYTQAPGKEREFVAGINSGGSTYYADSVKGRFTISRDNAKNTVYVQMNSLKPVDTAVYYCAAVERGYRRFRRIYDYWGQGTQVTVSS | high polyreactivity |
| QVQLVESGGGLVQAGGSLRLICAASGLTFWYYAMGWYRQAPGKERELVARITRSGVGTYYADSVKGRFTISRDNAKHTVYLQMNSLKPEDTAVYYCNARYQYSWVRYGYDYWGQGTQVTVSS | high polyreactivity |
| QVQLVESGGGLVQAGGSLRLICAASGLTYVSYAMGWYRQAPGKERELVAGITSGGGTTDYADSVKGRFTISRDNAKTTVYLQMNSLTPEDTAVYDCNARSVYDGFWYNYWGQGTQVTVSS | high polyreactivity |
| QVQLVESGGGLVQAGGSLRLICAASGMTFYSYAMGWYRQAPGKERELVAAISATGGRTYYADSEKGRFTISRDNAKNTVYLQMNSLKPEDTEVYYCAAKSSYEYGYWGQGTQVTVSS | high polyreactivity |
| QVQLVESGGGLVQAGGSLRLICAASGNTFGYNAMVWYRQAPGKERELVASITLSGGSTYYADSVKGRFTISRDTAKNTVYLQMFCLKPEDTAVYYCNADTFQWWDIADVYVIVKYGYWGQGTQVTVSS | low polyreactivity |
| QVQLVESGGGLVQAGGSLRLICAASGNTFKYNAMGWYRQAPGKERELVAAITWRGTSTSYADSVKGRFTISRDNAKNTVYLQMNSLKAEDTAFYYSNAVYYWYGRVAYSFGYWGQGTQVTVSS | high polyreactivity |
| QVQLVESGGGLVQAGGSLRLICAASGNTFSVYTMGWYRQAPGKERELVAAISFRSGSTYYADSVKGRFTISRDNAKNTVYLLMNSLKPEDTAVYYCAAYVRQLQVVRGVSNYDSWGQGTQVTVSS | high polyreactivity |
| QVQLVESGGGLVQAGGSLRLICAASGNTLGPYAMGWYRQAPGKERELVAAITWSGGITDYADSVKGRFTISRDNAKNTVYLQMNSLKPEDTAVYYCNAGPSLGIFQGTSVGLRYDYWGQGTQVTVSS | low polyreactivity |
| QVQLVESGGGLVQAGGSLRLICAASGRICISNAMGWYRQAPGKERELVAAITWIGDRTYYADSVKGRFTISRDNAKNTVYLQMISLKPEDTAVYYCAADSYSPYTMDYWRQGTQVTVSS | high polyreactivity |
| QVQLVESGGGLVQAGGSLRLICAASGRIFDFYAMGWYRQAPGKERELVAAITNGGRTNYADSVKGRFTISRDNAKNTVYLQMNSLKPEDTAVYYCAARLAYWYYYAWRGPYYYWGQGTQVTVSS | high polyreactivity |
| QVQLVESGGGLVQAGGSLRLICAASGRIFDSYTMGWYRQAPGKERELVAAISRGGGSTYYADSVKGRFTISRDNAKNTVYLQMNSLKPEDTAVFYCAASSYLNSRFKFDYWGQGTQVTVSS | low polyreactivity |

From the nanobody polyreactivity screen of Harvey et al. (2022)
